Assay results published in PMC3731272, “Evidence for a Novel Mechanism of the PAK1 Interaction with the Rho-GTPases Cdc42 and Rac” (PLoS ONE, 2013).

Biological target: T1, GFP-PAK1^S79A (UniProt Q13153 1-545, S79A)
T1 construct: source: 293T cells, expressed, in cell extract / lysate
Test: co-IP; GFP-PAK1 (WT or S79A) coexpressed with Myc-Cdc42 in 293T cells; extracts immunoprecipitated with anti-GFP, blotted with anti-Myc; lysis buffer 50 mM HEPES pH 7.4, 150 mM NaCl, 1 mM EDTA, 10% glycerol, 1% Triton X100 with phosphatase inhibitors; antibodies overnight at 4°C
Conditions: partners not purified

T1 sequence (Q13153 whole entry S79A): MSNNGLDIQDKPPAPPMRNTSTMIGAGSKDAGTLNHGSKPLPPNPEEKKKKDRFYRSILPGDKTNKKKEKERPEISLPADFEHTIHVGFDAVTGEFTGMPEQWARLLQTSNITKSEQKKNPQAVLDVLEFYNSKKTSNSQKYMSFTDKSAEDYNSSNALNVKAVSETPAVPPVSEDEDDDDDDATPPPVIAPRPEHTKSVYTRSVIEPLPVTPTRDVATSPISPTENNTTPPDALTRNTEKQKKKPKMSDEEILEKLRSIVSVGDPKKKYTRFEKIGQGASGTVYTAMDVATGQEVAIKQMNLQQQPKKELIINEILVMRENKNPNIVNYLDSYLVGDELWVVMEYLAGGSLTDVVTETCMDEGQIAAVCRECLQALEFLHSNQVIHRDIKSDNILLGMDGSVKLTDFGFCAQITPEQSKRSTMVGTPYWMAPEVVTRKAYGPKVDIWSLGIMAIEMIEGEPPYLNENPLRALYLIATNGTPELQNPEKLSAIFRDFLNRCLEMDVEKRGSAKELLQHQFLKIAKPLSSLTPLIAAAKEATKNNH

B1: Myc-Cdc42 (natural protein)
chain: not shown
notes: Rho GTPase Cdc42; source: 293T cells, coexpressed, in cell extract
fold reduction of binding against wild type PAK1: ~3 fold
